Test in all cases: competitive phage ELISA
(In general: In an ELISA, binding on a coated surface is turned into a signal by an enzyme label.)

For experiment [1], the target named is T1, IGF-I T41A (G1S-A70V background) displayed on phage (human; bacteriophage M13).
T1 construct: monovalent M13 phage display
T1 chain: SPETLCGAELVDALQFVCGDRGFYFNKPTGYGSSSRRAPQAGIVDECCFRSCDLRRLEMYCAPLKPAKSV
The method, then:
(§1) Phage particles were harvested and resuspended in PBS buffer as described in Lowman, H. B., “Phage Display of Peptide Libraries on Protein Scaffolds,” in Cabilly, S. (ed.), Combinatorial Peptide Library Protocols (Humana Press Inc.: Totowa, N.J., 1998), pp. 249-264. Then phage concentrations were normalized to yield a maximal ELISA signal of 0.2-0.4 for each mutant (Lowman, in Cabilly, S. (ed.), supra). Threefold serial dilutions of soluble competitor were prepared on non-absorbent microtiter plates (Nunc, F, 96 wells) with binding buffer (0.5% TWEEN™ 20/PBS) containing phage at the previously-determined concentrations. […] After blocking, the plates containing immobilized target were washed with 0.05% TWEEN™/PBS buffer and subsequently incubated with 80 μl/well of the premixed phage-competitor solutions for 1 hour at room temperature. After washing, bound phage was detected with 80 μl/well of a solution containing a primary rabbit anti-phage polyclonal antibody and a secondary goat anti-rabbit monoclonal antibody-horseradish peroxidase conjugate in 0.5% TWEEN 20™/PBS. o-Phenylenediamine (Sigma) and tetramethylbenzidine (Kirkegaard and Perry) were used as chromogenic substrates, resulting in product detection at 492 and 450 nm, respectively. IC₅₀ values were determined by fitting the binding data to a generic saturation curve (Lowman, in Cabilly, S. (ed.), supra). […] Numbers in Table I represent mean +standard deviation of individually assessed IC₅₀ values.
(§2) At least two different clones of every mutant were tested.

The target in experiment [2] is T2, IGF-I F16A (G1S-A70V background) displayed on phage (human; bacteriophage M13).
T2 construct: monovalent M13 phage display
T2 chain: T1 chain with F16A, A41T
The method, then:
as §1, §2

Experiment [3] concerns the target T3, IGF-I E9A (G1S-A70V background) displayed on phage (human; bacteriophage M13).
T3 construct: monovalent M13 phage display
T3 chain: T1 chain with E9A, A41T
As for the experimental part:
as §1, §2

The target in experiment [4] is T4, IGF-I F25A (G1S-A70V background) displayed on phage (human; bacteriophage M13, not fully specified; Displayed monovalently on M13 phage as a C-terminal fusion to the gene III fragment, which is left out of the letters.).
T4 construct: monovalent M13 phage display; not shown: Display carrier: M13 gene III fragment (residues 249-406) and its junction
T4 chain: T1 chain with F25A, A41T
The method, then: as §1, §2

Experiment [5] addresses T5, IGF-I G32A (G1S-A70V background) displayed on phage (human; bacteriophage M13).
T5 construct: monovalent M13 phage display; not shown: M13 gene III fragment (residues 249-406, display partner) and the junction to it
T5 chain: T1 chain with G32A, A41T
As for the experimental part:
as §1, §2

The target of experiment [6] is T6, IGF-I P28A (G1S-A70V background) displayed on phage (human; bacteriophage M13).
T6 construct: monovalent M13 phage display; not shown: M13 gene III fragment (residues 249-406, display partner) and the junction to it
T6 chain: T1 chain with P28A, A41T
The method, then: as §1, §2

Experiment [7] concerns the target T7, wild-type IGF-I displayed on phage (human; bacteriophage M13, UniProt P69168 267-424).
T7 construct: range 249-406; monovalent M13 phage display; also called IGF-I WT; double-mutation restoring wild-type IGF-I
The method, then: as §1, §2

For experiment [8], the target named is T8, IGF-I L10A (G1S-A70V background) displayed on phage (human; bacteriophage M13).
T8 construct: monovalent M13 phage display
T8 chain: T1 chain with L10A, A41T
As for the experimental part: as §1, §2

For experiment [9], the target named is T9, IGF-I G42A (G1S-A70V background) displayed on phage (human; bacteriophage M13).
T9 construct: monovalent M13 phage display
T9 chain: T1 chain with A41T, G42A
As for the experimental part: as §1, §2

In experiment [10] the target is T10, IGF-I M59A (G1S-A70V background) displayed on phage (human; bacteriophage M13).
T10 construct: monovalent M13 phage display; not shown: M13 gene III protein fragment (residues 249-406), the phage display carrier, and its junction to IGF-I
T10 chain: T1 chain with A41T, M59A
The method, then: as §1, §2

For experiment [11], the target named is T11, IGF-I S34A (G1S-A70V background) displayed on phage (human; bacteriophage M13).
T11 construct: monovalent M13 phage display; not shown: M13 gene III fragment (residues 249-406, display partner) and the junction to it
T11 chain: T1 chain with S34A, A41T
As for the experimental part: as §1, §2

Experiment [12] concerns the target T12, IGF-I Y24A (G1S-A70V background) displayed on phage (human; bacteriophage M13, not fully specified; Displayed monovalently on M13 phage as a C-terminal fusion to the gene III fragment, which is left out of the letters.).
T12 construct: monovalent M13 phage display; not shown: Display carrier: M13 gene III fragment (residues 249-406) and its junction
T12 chain: T1 chain with Y24A, A41T
As for the experimental part: as §1, §2

Experiment [13] has as its target T13, IGF-I R50A (G1S-A70V background) displayed on phage (human; bacteriophage M13).
T13 construct: monovalent M13 phage display
T13 chain: T1 chain with A41T, R50A
As for the experimental part:
as §1, §2

Experiment [14] has as its target T14, IGF-I V17A (G1S-A70V background) displayed on phage (human; bacteriophage M13).
T14 construct: monovalent M13 phage display
T14 chain: T1 chain with V17A, A41T
As for the experimental part:
as §1, §2

Experiment [15] concerns the target T15, IGF-I P2A (G1S-A70V background) displayed on phage (human; bacteriophage M13).
T15 construct: range 249-406; monovalent M13 phage display
The method, then:
as §1, §2

Residue numbers refer to the chain shown, from its start.

B1: human IGFBP-1 (other, UniProt P08833 26-259, looked up)
chain: APWQCAPCSAEKLALCPPVSASCSEVTRSAGCGCCPMCALPLGAACGVATARCARGLSCRALPGEQQPLHALTRGQGACVQESDASAPHAAEAGSPESPESTEITEEELLDNFHLMAPSEEDHSILWDAISTYDGSKALHVTNIKKWKEPCRIELYRVVESLAKAQETSGEEISKFYLPNCNKNGFYHSRQCETSMDGEAGLCWCVYPWNGKRIPGSPEIRGDPNCQIYFNVQN
notes: secreted recombinant protein purified from conditioned medium
For B1, the IC50 (as a rule, the concentration that gives 50% inhibition) in experiment [1] was found to be 13.7 nM; in experiment [2], 57.8 nM; in [3], 8.6 nM; in experiment [4] it was 181 nM; in experiment [5], 10.9 nM; in [6] it was 9.3 nM. The IC50 was found to be 8.4 nM in experiment [7]; 311 nM in [8]; 15.7 nM in experiment [9]; 13.1 nM in [10]; 9.5 nM in [11]; 13.3 nM in experiment [12]. Also, the IC50 in experiment [13] amounted to 16.2 nM; in experiment [14], 42.9 nM; in experiment [15], 11 nM.
